From article PMC4689063

Biological target: Sam68-6H (UniProt Q07666 1-443)
Experiment: EMSA
Conditions: protein: recombinant; tags: 6xHis (pET30c+); chain copies: 2; label: 5' biotin; two UAAA motifs predicted unpaired

Sequence of Sam68-6H (Q07666 whole entry): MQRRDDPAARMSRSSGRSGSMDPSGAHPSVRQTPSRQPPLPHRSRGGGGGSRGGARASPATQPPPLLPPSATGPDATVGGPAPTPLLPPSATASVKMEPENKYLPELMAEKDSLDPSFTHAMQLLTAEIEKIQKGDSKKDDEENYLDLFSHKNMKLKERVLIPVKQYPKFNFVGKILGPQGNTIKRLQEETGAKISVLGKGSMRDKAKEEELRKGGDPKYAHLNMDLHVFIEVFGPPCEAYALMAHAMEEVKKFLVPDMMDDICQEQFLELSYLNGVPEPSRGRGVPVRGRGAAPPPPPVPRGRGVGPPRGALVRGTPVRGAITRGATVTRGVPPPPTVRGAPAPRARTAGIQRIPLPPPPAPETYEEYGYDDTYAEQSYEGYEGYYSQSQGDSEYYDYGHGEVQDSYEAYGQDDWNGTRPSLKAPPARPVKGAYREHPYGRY

B1: WT domain 4 probe (ssRNA)
RNA: AAGGGGACCGGGGCUUCUAUAAAAGCGCCCGGUUUAAAAAGCUUCUAUGUCUGAAUAGGUGACCG
  apparent K (half saturation): ~3.16 µM
